Laboratory results published in patent publication US20260216242A1, “ALPP-SPECIFIC VARIANT ANTIGEN BINDING MOLECULES” (ALMAC DISCOVERY LIMITED, priority 2022, published 2026).

B1: D10 A06-hFc (S239/442C T366Y/Y407T), [G4S]3 linker, MC-vc-PAB-MMAE conjugate, #633 (Fc fusion, DAR 4)
chain 1: QVQLVESGGGLVQPGGSLRLSCAASGSIFSVNTMGWYRQAPGKQRDLVAVATSGGTIHYADSVKGRFTISRDNAKNTVYLQMNSLKPEDTAVYYCNLVVPYGMIAGDHDYWGQGTKVTVSSGGGGSGGGGSGGGGSEPKSSDKTHTCPPCPAPELLGGPCVFLFPPKPKDTLMISRTPEVTCVVVDVSHEDPEVKFNWYVDGVEVHNAKTKPREEQYNSTYRVVSVLTVLHQDWLNGKEYKCKVSNKALPAPIEKTISKAKGQPREPQVYTLPPSRDELTKNQVSLYCLVKGFYPSDIAVEWESNGQPENNYKTTPPVLDSDGSFFLYSKLTVDKSRWQQGNVFSCSVMHEALHNHYTQKSLCLSPGK
chain 2: QVHLVESGGGLVQAGGSLRLSCAASGRTFLSMGWFRQAPGKEREFVAAISWTGGSTGYADSVKGRFTISRESDKETMYLQMNSLKPEDTAVYYCAARGDVYYGGDDATRYKYWGQGTQVTVSSGGGGSGGGGSGGGGSEPKSSDKTHTCPPCPAPELLGGPCVFLFPPKPKDTLMISRTPEVTCVVVDVSHEDPEVKFNWYVDGVEVHNAKTKPREEQYNSTYRVVSVLTVLHQDWLNGKEYKCKVSNKALPAPIEKTISKAKGQPREPQVYTLPPSRDELTKNQVSLTCLVKGFYPSDIAVEWESNGQPENNYKTTPPVLDSDGSFFLTSKLTVDKSRWQQGNVFSCSVMHEALHNHYTQKSLCLSPGK
modifications: here or on the partner: MC-vc-PAB-MMAE on Cys of S239C and S442C (EU numbering)
B2: D10 F05-hFc (S239/442C T366Y/Y407T), [G4S]3 linker, MC-vc-PAB-MMAE conjugate, #637 (Fc fusion, DAR 4)
chain 1: QVQLVESGGGLVQPGGSLRLSCAASGSIFSVNTMGWYRQAPGKQRDLVAVATSGGTIHYADSVKGRFTISRDNAKNTVYLQMNSLKPEDTAVYYCNLVVPYGMIAGDHDYWGQGTKVTVSSGGGGSGGGGSGGGGSEPKSSDKTHTCPPCPAPELLGGPCVFLFPPKPKDTLMISRTPEVTCVVVDVSHEDPEVKFNWYVDGVEVHNAKTKPREEQYNSTYRVVSVLTVLHQDWLNGKEYKCKVSNKALPAPIEKTISKAKGQPREPQVYTLPPSRDELTKNQVSLYCLVKGFYPSDIAVEWESNGQPENNYKTTPPVLDSDGSFFLYSKLTVDKSRWQQGNVFSCSVMHEALHNHYTQKSLCLSPGK
chain 2: QVQLVESGGGLVQAGGSLRLSCAASGRAFGDYNIGWFRQAPGKEREFVARRTWDGSSTRYDDSVKGRFTVSIDNAKNTAYLQMNSLKTEDTAVYYCAAGRYSRVRGWEYDYWGQGTQVTVSSGGGGSGGGGSGGGGSEPKSSDKTHTCPPCPAPELLGGPCVFLFPPKPKDTLMISRTPEVTCVVVDVSHEDPEVKFNWYVDGVEVHNAKTKPREEQYNSTYRVVSVLTVLHQDWLNGKEYKCKVSNKALPAPIEKTISKAKGQPREPQVYTLPPSRDELTKNQVSLTCLVKGFYPSDIAVEWESNGQPENNYKTTPPVLDSDGSFFLTSKLTVDKSRWQQGNVFSCSVMHEALHNHYTQKSLCLSPGK
modifications: here or on the partner: MC-vc-PAB-MMAE on Cys of S239C and S442C (EU numbering)
B3: A06 E06-hFc (S239/442C T366Y/Y407T), [G4S]3 linker, MC-vc-PAB-MMAE conjugate, #639 (Fc fusion, DAR 4)
chain 1: QVHLVESGGGLVQAGGSLRLSCAASGRTFLSMGWFRQAPGKEREFVAAISWTGGSTGYADSVKGRFTISRESDKETMYLQMNSLKPEDTAVYYCAARGDVYYGGDDATRYKYWGQGTQVTVSSGGGGSGGGGSGGGGSEPKSSDKTHTCPPCPAPELLGGPCVFLFPPKPKDTLMISRTPEVTCVVVDVSHEDPEVKFNWYVDGVEVHNAKTKPREEQYNSTYRVVSVLTVLHQDWLNGKEYKCKVSNKALPAPIEKTISKAKGQPREPQVYTLPPSRDELTKNQVSLYCLVKGFYPSDIAVEWESNGQPENNYKTTPPVLDSDGSFFLYSKLTVDKSRWQQGNVFSCSVMHEALHNHYTQKSLCLSPGK
chain 2: QVHLVESGGGLVQAGGSLRLSCAASRRSFSEYAMGWFRQAPGKEREFVAAIGWSGVIEYADSVKGRFTISRDNAKDTVYLQMNSLKPEDTAVYYCAAGLGIRVVSQTPAYWGQGTQVTVSSGGGGSGGGGSGGGGSEPKSSDKTHTCPPCPAPELLGGPCVFLFPPKPKDTLMISRTPEVTCVVVDVSHEDPEVKFNWYVDGVEVHNAKTKPREEQYNSTYRVVSVLTVLHQDWLNGKEYKCKVSNKALPAPIEKTISKAKGQPREPQVYTLPPSRDELTKNQVSLTCLVKGFYPSDIAVEWESNGQPENNYKTTPPVLDSDGSFFLTSKLTVDKSRWQQGNVFSCSVMHEALHNHYTQKSLCLSPGK
modifications: here or on the partner: MC-vc-PAB-MMAE on Cys of S239C and S442C (EU numbering)
B4: D10 E06-hFc (S239/442C T366Y/Y407T), [G4S]3 linker, MC-vc-PAB-MMAE conjugate, #634 (Fc fusion, DAR 4)
chain 1: QVQLVESGGGLVQPGGSLRLSCAASGSIFSVNTMGWYRQAPGKQRDLVAVATSGGTIHYADSVKGRFTISRDNAKNTVYLQMNSLKPEDTAVYYCNLVVPYGMIAGDHDYWGQGTKVTVSSGGGGSGGGGSGGGGSEPKSSDKTHTCPPCPAPELLGGPCVFLFPPKPKDTLMISRTPEVTCVVVDVSHEDPEVKFNWYVDGVEVHNAKTKPREEQYNSTYRVVSVLTVLHQDWLNGKEYKCKVSNKALPAPIEKTISKAKGQPREPQVYTLPPSRDELTKNQVSLYCLVKGFYPSDIAVEWESNGQPENNYKTTPPVLDSDGSFFLYSKLTVDKSRWQQGNVFSCSVMHEALHNHYTQKSLCLSPGK
chain 2: QVHLVESGGGLVQAGGSLRLSCAASRRSFSEYAMGWFRQAPGKEREFVAAIGWSGVIEYADSVKGRFTISRDNAKDTVYLQMNSLKPEDTAVYYCAAGLGIRVVSQTPAYWGQGTQVTVSSGGGGSGGGGSGGGGSEPKSSDKTHTCPPCPAPELLGGPCVFLFPPKPKDTLMISRTPEVTCVVVDVSHEDPEVKFNWYVDGVEVHNAKTKPREEQYNSTYRVVSVLTVLHQDWLNGKEYKCKVSNKALPAPIEKTISKAKGQPREPQVYTLPPSRDELTKNQVSLTCLVKGFYPSDIAVEWESNGQPENNYKTTPPVLDSDGSFFLTSKLTVDKSRWQQGNVFSCSVMHEALHNHYTQKSLCLSPGK
modifications: here or on the partner: MC-vc-PAB-MMAE on Cys of S239C and S442C (EU numbering)
B5: D10 E10-hFc (S239/442C T366Y/Y407T), [G4S]3 linker, MC-vc-PAB-MMAE conjugate, #636 (Fc fusion, DAR 4)
chain 1: QVQLVESGGGLVQPGGSLRLSCAASGSIFSVNTMGWYRQAPGKQRDLVAVATSGGTIHYADSVKGRFTISRDNAKNTVYLQMNSLKPEDTAVYYCNLVVPYGMIAGDHDYWGQGTKVTVSSGGGGSGGGGSGGGGSEPKSSDKTHTCPPCPAPELLGGPCVFLFPPKPKDTLMISRTPEVTCVVVDVSHEDPEVKFNWYVDGVEVHNAKTKPREEQYNSTYRVVSVLTVLHQDWLNGKEYKCKVSNKALPAPIEKTISKAKGQPREPQVYTLPPSRDELTKNQVSLYCLVKGFYPSDIAVEWESNGQPENNYKTTPPVLDSDGSFFLYSKLTVDKSRWQQGNVFSCSVMHEALHNHYTQKSLCLSPGK
chain 2: QVQLVESGGGLVQAGGSLRLSCAVSGRALSDYNIGWFRQAPGKEREFVARKTWDGSSTRYDDSVKGRFTVSIEDAKNTAYLQMSSLKTEDTAVYYCAAGRYSRARGWEYDYWGQGTQVTVSSGGGGSGGGGSGGGGSEPKSSDKTHTCPPCPAPELLGGPCVFLFPPKPKDTLMISRTPEVTCVVVDVSHEDPEVKFNWYVDGVEVHNAKTKPREEQYNSTYRVVSVLTVLHQDWLNGKEYKCKVSNKALPAPIEKTISKAKGQPREPQVYTLPPSRDELTKNQVSLTCLVKGFYPSDIAVEWESNGQPENNYKTTPPVLDSDGSFFLTSKLTVDKSRWQQGNVFSCSVMHEALHNHYTQKSLCLSPGK
modifications: here or on the partner: MC-vc-PAB-MMAE on Cys of S239C and S442C (EU numbering)
B6: A06 E10-hFc (S239/442C T366Y/Y407T), [G4S]3 linker, MC-vc-PAB-MMAE conjugate, #664 (Fc fusion, DAR 4)
chain 1: QVHLVESGGGLVQAGGSLRLSCAASGRTFLSMGWFRQAPGKEREFVAAISWTGGSTGYADSVKGRFTISRESDKETMYLQMNSLKPEDTAVYYCAARGDVYYGGDDATRYKYWGQGTQVTVSSGGGGSGGGGSGGGGSEPKSSDKTHTCPPCPAPELLGGPCVFLFPPKPKDTLMISRTPEVTCVVVDVSHEDPEVKFNWYVDGVEVHNAKTKPREEQYNSTYRVVSVLTVLHQDWLNGKEYKCKVSNKALPAPIEKTISKAKGQPREPQVYTLPPSRDELTKNQVSLYCLVKGFYPSDIAVEWESNGQPENNYKTTPPVLDSDGSFFLYSKLTVDKSRWQQGNVFSCSVMHEALHNHYTQKSLCLSPGK
chain 2: QVQLVESGGGLVQAGGSLRLSCAVSGRALSDYNIGWFRQAPGKEREFVARKTWDGSSTRYDDSVKGRFTVSIEDAKNTAYLQMSSLKTEDTAVYYCAAGRYSRARGWEYDYWGQGTQVTVSSGGGGSGGGGSGGGGSEPKSSDKTHTCPPCPAPELLGGPCVFLFPPKPKDTLMISRTPEVTCVVVDVSHEDPEVKFNWYVDGVEVHNAKTKPREEQYNSTYRVVSVLTVLHQDWLNGKEYKCKVSNKALPAPIEKTISKAKGQPREPQVYTLPPSRDELTKNQVSLTCLVKGFYPSDIAVEWESNGQPENNYKTTPPVLDSDGSFFLTSKLTVDKSRWQQGNVFSCSVMHEALHNHYTQKSLCLSPGK
modifications: here or on the partner: MC-vc-PAB-MMAE on Cys of S239C and S442C (EU numbering)
B7: A06 F05-hFc (S239/442C T366Y/Y407T), [G4S]3 linker, MC-vc-PAB-MMAE conjugate, #665 (Fc fusion, DAR 4)
chain 1: QVHLVESGGGLVQAGGSLRLSCAASGRTFLSMGWFRQAPGKEREFVAAISWTGGSTGYADSVKGRFTISRESDKETMYLQMNSLKPEDTAVYYCAARGDVYYGGDDATRYKYWGQGTQVTVSSGGGGSGGGGSGGGGSEPKSSDKTHTCPPCPAPELLGGPCVFLFPPKPKDTLMISRTPEVTCVVVDVSHEDPEVKFNWYVDGVEVHNAKTKPREEQYNSTYRVVSVLTVLHQDWLNGKEYKCKVSNKALPAPIEKTISKAKGQPREPQVYTLPPSRDELTKNQVSLYCLVKGFYPSDIAVEWESNGQPENNYKTTPPVLDSDGSFFLYSKLTVDKSRWQQGNVFSCSVMHEALHNHYTQKSLCLSPGK
chain 2: QVQLVESGGGLVQAGGSLRLSCAASGRAFGDYNIGWFRQAPGKEREFVARRTWDGSSTRYDDSVKGRFTVSIDNAKNTAYLQMNSLKTEDTAVYYCAAGRYSRVRGWEYDYWGQGTQVTVSSGGGGSGGGGSGGGGSEPKSSDKTHTCPPCPAPELLGGPCVFLFPPKPKDTLMISRTPEVTCVVVDVSHEDPEVKFNWYVDGVEVHNAKTKPREEQYNSTYRVVSVLTVLHQDWLNGKEYKCKVSNKALPAPIEKTISKAKGQPREPQVYTLPPSRDELTKNQVSLTCLVKGFYPSDIAVEWESNGQPENNYKTTPPVLDSDGSFFLTSKLTVDKSRWQQGNVFSCSVMHEALHNHYTQKSLCLSPGK
modifications: here or on the partner: MC-vc-PAB-MMAE on Cys of S239C and S442C (EU numbering)

Target: ALPP/ALPPL2 on ALPP/ALPPL2 positive cancer cells (MKN1, NCI-H1651, NCI-N87, Caov-3, HPAC)
Test: cell-based or functional assay

Point of comparison: B4, % viability remaining at 96 h, MKN1 cells 31.1%. Against it:
- B1 — lower, 27.9%
- B2 — lower, 28.1%
- B3 — lower, 30.6%
- B5 — lower, 30%
- B6 — lower, 29.7%
- B7 — higher, 31.6%

Point of comparison: B7, % viability remaining at 96 h, NCI-H1651 cells 25%. Against it:
- B1 — higher, 25.4%
- B2 — higher, 28%
- B3 — higher, 28%
- B4 — higher, 28.5%
- B5 — higher, 28.9%
- B6 — higher, 27.2%

Point of comparison: B3, % viability remaining at 96 h, NCI-N87 cells 27.8%. Against it:
- B1 — lower, 27.3%
- B2 — higher, 28.9%
- B4 — lower, 27.6%
- B5 — lower, 26.2%
- B6 — higher, 28.7%
- B7 — lower, 27%

Point of comparison: B2, IC50 at 96 h, cell-killing of MKN1 cells 1.3 nM. Against it:
- B1 — within 1.5-fold, 1.4 nM
- B3 — 1.8-fold higher, 2.3 nM
- B4 — 2-fold higher, 2.6 nM
- B5 — within 1.5-fold, 1.9 nM
- B6 — within 1.5-fold, 0.9 nM
- B7 — 1.9-fold lower, 0.7 nM

Point of comparison: B1, IC50 at 96 h, cell-killing of NCI-H1651 cells 5.4 nM. Against it:
- B2 — 4.5-fold lower, 1.2 nM
- B3 — 6-fold lower, 0.9 nM
- B4 — 4.9-fold lower, 1.1 nM
- B5 — 6-fold lower, 0.9 nM
- B6 — 9-fold lower, 0.6 nM
- B7 — 14-fold lower, 0.4 nM

Point of comparison: B7, IC50 at 96 h, cell-killing of NCI-N87 cells 5.8 nM. Against it:
- B1 — within 1.5-fold, 4.9 nM
- B2 — within 1.5-fold, 5.1 nM
- B3 — 2.2-fold higher, 12.9 nM
- B4 — 2.4-fold lower, 2.4 nM
- B5 — 2.8-fold lower, 2.1 nM
- B6 — within 1.5-fold, 4.7 nM
